Experimental findings from article PMC8931054, “Structure-guided unlocking of NaX reveals a non-selective tetrodotoxin-sensitive cation channel” (Nature Communications, 2022) are described below.

In the test the target is T1, human NaX channel (human, UniProt Q01118 1-1682).
T1 construct: Full-length human NaX (sodium channel protein type 7 subunit alpha, gene SCN7A), cloned into a pRK vector behind a CMV promoter; Co-expressed and co-purified with untagged β3; No removal of the tags is described; also called SCN7A; source: Expi293 cells, co-transfected with β3, purified (anti-FLAG M2 agarose, Strep-Tactin XT, Superose 6); not shown: 2xStrepII, N-terminal, kept; 2xFLAG, …
T1 sequence (Q01118 whole entry): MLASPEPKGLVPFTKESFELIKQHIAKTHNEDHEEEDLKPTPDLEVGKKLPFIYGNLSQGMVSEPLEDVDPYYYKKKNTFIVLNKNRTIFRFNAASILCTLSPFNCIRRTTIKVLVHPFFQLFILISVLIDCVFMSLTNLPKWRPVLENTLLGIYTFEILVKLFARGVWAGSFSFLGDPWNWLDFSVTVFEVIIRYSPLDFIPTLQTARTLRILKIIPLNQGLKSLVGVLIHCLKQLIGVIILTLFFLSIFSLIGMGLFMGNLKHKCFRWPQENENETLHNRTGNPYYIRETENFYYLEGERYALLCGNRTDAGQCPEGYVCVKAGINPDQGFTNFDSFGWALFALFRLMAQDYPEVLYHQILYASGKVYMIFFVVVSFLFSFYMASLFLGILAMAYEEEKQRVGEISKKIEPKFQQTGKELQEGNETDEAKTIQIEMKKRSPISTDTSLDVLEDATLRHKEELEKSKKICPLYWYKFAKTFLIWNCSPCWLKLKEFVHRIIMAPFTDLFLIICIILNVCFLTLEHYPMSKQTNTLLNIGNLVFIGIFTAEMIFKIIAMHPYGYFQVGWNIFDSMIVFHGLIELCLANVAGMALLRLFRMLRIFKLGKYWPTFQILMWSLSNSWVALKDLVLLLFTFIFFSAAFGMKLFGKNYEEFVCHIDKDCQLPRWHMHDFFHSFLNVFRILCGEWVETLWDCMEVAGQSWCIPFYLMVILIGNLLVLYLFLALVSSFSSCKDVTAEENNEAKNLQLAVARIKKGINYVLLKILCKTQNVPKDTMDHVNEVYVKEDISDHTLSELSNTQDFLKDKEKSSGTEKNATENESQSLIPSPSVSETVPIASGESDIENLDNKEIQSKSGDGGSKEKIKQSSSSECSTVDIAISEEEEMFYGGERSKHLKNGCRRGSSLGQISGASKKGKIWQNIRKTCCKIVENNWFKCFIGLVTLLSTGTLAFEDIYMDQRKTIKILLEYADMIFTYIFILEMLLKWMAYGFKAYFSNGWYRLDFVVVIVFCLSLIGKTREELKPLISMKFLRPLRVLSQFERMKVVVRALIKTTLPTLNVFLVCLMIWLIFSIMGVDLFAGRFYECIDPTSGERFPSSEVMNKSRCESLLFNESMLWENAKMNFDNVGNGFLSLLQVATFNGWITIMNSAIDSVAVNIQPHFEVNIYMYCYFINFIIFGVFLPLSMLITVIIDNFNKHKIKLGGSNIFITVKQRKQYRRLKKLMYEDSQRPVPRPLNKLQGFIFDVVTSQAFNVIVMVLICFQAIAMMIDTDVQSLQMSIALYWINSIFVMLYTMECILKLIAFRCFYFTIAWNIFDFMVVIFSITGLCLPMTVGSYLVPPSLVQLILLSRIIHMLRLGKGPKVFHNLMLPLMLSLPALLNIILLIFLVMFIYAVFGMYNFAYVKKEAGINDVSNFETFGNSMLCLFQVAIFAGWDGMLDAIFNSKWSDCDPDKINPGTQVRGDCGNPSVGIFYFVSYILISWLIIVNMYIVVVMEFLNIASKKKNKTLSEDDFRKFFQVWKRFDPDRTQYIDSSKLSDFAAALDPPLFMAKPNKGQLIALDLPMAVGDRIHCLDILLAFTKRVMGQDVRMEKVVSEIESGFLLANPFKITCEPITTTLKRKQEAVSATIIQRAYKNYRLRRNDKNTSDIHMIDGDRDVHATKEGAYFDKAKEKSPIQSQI
Kind of test: cryo-EM structure; β3-NaX complex co-expressed in Expi293, purified in GDN by the tags on NaX, reconstituted into POPC:POPE:POPG nanodiscs (MSP1E3D1); 25 mM HEPES pH 7.0, 200 mM NaCl; cross-linked with 0.05% glutaraldehyde before vitrification. Conditions: both partners purified.

B1: human β3-subunit (auxiliary NaV channel β3) (natural protein, UniProt Q9NY72 23-215, looked up)
chain: FPVCVEVPSETEAVQGNPMKLRCISCMKREEVEATTVVEWFYRPEGGKDFLIYEYRNGHQEVESPFQGRLQWNGSKDLQDVSITVLNVTLNDSGLYTCNVSREFEFEAHRPFVKTTRLIPLRVTEEAGEDFTSVVSEIMMYILLVFLTLWLLIEMIYCYRKVSKAEEAAQENASDYLAIPSENKENSAVPVEE
notes: Untagged full-length human sodium channel auxiliary β3-subunit, cloned into a pRK vector behind a CMV promoter; The full-length cDNA was expressed; also called NaVβ3; source: Expi293 cells, co-transfected with NaX, co-purified with tagged NaX
For B1, the binding result was “binds”.
